Data from patent US20250163146A1 (published 2025).
Values belong to the binder of their own block, whether it stands above or below them.

Biological target: Nb.d4C4-1
Assay: SPR

Kd: 1.43 nM
B1: hDLL4(N-EGF5) (ligand)
chain: SGVFQLQLQEFINERGVLASGRPCEPGCRTFFRVCLKHFQAVVSPGPCTFGTVSTPVLGTNSFAVRDDSSGGGRNPLQLPFNFTWPGTFSLIIEAWHAPGDDLRPEALPPDALISKIAIQGSLAVGQNWLLDEQTSTLTRLRYSYRVICSDNYYGDNCSRLCKKRNDHFGHYVCQPDGNLSCLPGWTGEYCQQPICLSGCHEQNGYCSKPAECLCRPGWQGRLCNECIPHNGCRHGTCSTPWQCTCDEGWGGLFCDQDLNYCTHHSPCKNGATCSNSGQRSYTCTCRPGYTGVDCELELSECDSNPCRNGGSCKDQEDGYHCLCPPGYYGLHCEHSTLSCADSPCFNGGSCRERNQGANYACECPPNFTGSNCEK
modifications: biotinylated in the flow cytometry titration (site not stated); not stated for the plate-coated protein

Kd: 1.63 nM
B2: mDll4(N-EGF3) (ligand)
chain: GSGIFQLRLQEFVNQRGMLANGQSCEPGCRTFFRICLKHFQATFSEGPCTFGNVSTPVLGTNSFVVRDKNSGSGRNPLQLPFNFTWPGTFSLNIQAWHTPGDDLRPETSPGNSLISQIIIQGSLAVGKIWRTDEQNDTLTRLSYSYRVICSDNYYGESCSRLCKKRDDHFGHYECQPDGSLSCLPGWTGKYCDQPICLSGCHEQNGYCSKPDECICRPGWQGRLCNECIPHNGCRHGTCSIPWQCACDEGWGGLFCDQDLNYCTHHSPCKNGSTCSNSGPKGYTCTCLPGYTGEHCEL
modifications: biotinylated (site not stated)
